The values that follow are results of earlier work, collected in PMC11121562.

This data set addresses Cyclin C (Homo sapiens) (UniProt P24863).
Chain of UniProt P24863 (P24863 whole entry): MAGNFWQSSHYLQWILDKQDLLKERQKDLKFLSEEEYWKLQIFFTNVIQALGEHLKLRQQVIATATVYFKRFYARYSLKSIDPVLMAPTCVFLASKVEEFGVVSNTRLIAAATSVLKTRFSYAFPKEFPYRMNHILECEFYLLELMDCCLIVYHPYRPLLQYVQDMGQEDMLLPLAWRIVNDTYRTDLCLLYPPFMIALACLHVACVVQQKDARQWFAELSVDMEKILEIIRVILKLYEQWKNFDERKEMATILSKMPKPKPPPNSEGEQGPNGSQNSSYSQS

Regarding CDK8 (from UniProt P49336), the dissociation constant (Kd) is 7.05 nM.
